From US20010010923A1, “MODIFIED CARBOXYPEPTIDASE” (priority 1997, published 2001) come the findings set out here.

Positions count from the first letter of the chain named. Numbers in names are those of the source. Entries after “also recorded” stand apart in the source; their conditions may differ. Marks after values point to notes of the source that are not given here. Some results are limits rather than exact numbers.

Holding throughout (assay type): biochemical
Experiment [1] is described as follows: Transpeptidation of FA-Ala-OBzl with H-Leu-NH2, Table 3. Particulars: for fa / KN(app): FA-Ala-OBzl 0.2 mM, pH 7.5; for fa: H-Leu-NH2; for change in famax and KN(app), in words: compared with wild type, Table 3; for KN(app): nucleophile H-Leu-NH2 concentration at which fa is half of maximum. How it is done:
(§1) Transamidation reactions were carried out generally as described in PCT Application WO 95/20039. In general, the method included dissolving the nucleophile (H-Leu-NH2, unless otherwise indicated) in 50 mM HEPES, 5 mM EDTA and adjusting the pH to 7.5, 5 μl of peptide substrate (8 mM Bz-G-A-R-A-R-A-OH, unless otherwise indicated, in methanol) was added to 190 μl nucleophile solution followed by 5 μl enzyme, resulting in a substrate concentration of 0.2 mM.
(§2) During the reaction, 20 μl aliquots were removed from the reaction mixture and added to 50 μl 1% trifluoroacetic acid to quench the reaction. The reactant composition was determined by HPLC using a Waters HPLC equipped with a C-18 Waters Novapac 4μ reverse phase column and various gradients of acetonitrile in 0.1% trifluoroacetic acid. The separation was monitored at 254 nm allowing the direct quantification of the products from the integrated peak areas. The composition of the reaction mixture was determined at least twvice during the reaction, the first when 20-50% (preferably 35%) of the substrate had been consumed in the reaction and the second time when 50-90% (preferably 80%) of the peptide substrate had been consumed.
(§3) The fraction of aminolysis (fa) was expressed as the ratio between the formed aminolysis product and the sum of all products formed. Unconsumed substrate was disregarded in the calculations.
Site specific mutagenesis was performed as described in Example 1 to produce the specific substitution mutants described below. Transamidation reactions were performed as described for Example 1.
In table 3, below, KN(app) represents the nucleophile concentration at which fa is half of the maximum value (a measure for the dissociation constant of the nucleophile). famax is the highest possible fa obtained at saturation of the enzyme with the nucleophile.
KN(app) indicates the concentration at which famax/2 is reached and thus describes the apparent binding constant of the nucleophile. Because the competing hydrolysis reaction is thought to occur while the leaving group remains attached to the to the acyl-enzyme intermediate, a low KN(app) is preferred.

Experiment [2] is described as follows: Transpeptidation of FA-Ala-Xaa-OH with H-Gly-NH2, Table 2. Particulars: for Fraction of aminolysis (fa), P1' Ala: FA-Ala-Ala-OH 0.2 mM; for Fraction of aminolysis (fa), P1' Ala / Fraction of aminolysis (fa), P1' Leu / Fraction of aminolysis (fa), P1' Met / Fraction of aminolysis (fa), P1' Phe / Fraction of aminolysis (fa), P1' Val: 1.9 M H-Gly-NH2, pH 7.5, room temperature; for Fraction of aminolysis (fa), P1' Leu: FA-Ala-Leu-OH 0.2 mM; for Fraction of aminolysis (fa), P1' Met: FA-Ala-Met-OH 0.2 mM; for Fraction of aminolysis (fa), P1' Phe: FA-Ala-Phe-OH 0.2 mM; for Fraction of aminolysis (fa), P1' Val: FA-Ala-Val-OH 0.2 mM; for fraction of aminolysis compared to wild type, in words: larger, hydrophobic leaving group such as leucine. As for the experimental part: as §1, §2, §3
Site specific mutagenesis was performed as described for Example 1 to produce the S1 mutants used below.
Transamidation reactions were performed as described for Example 1.

Experiment [3] is described as follows: Transpeptidation of Bz-G-A-R-A-R-X-OH at pH 7.5 at 50% substrate consumption, Table 4. The note with it: for Pmax (peak product yield) / fa: 375 mM H-Leu-NH2; for fa / t: 50% substrate consumption; for t: 375 mM H-Leu-NH2, 2 mM substrate, [E] 0.1 mg/mL. On the set-up: key to fa: fraction: aminolysis product / sum of all products formed. How it is done: as §1, §2, §3
Site specific mutagenesis was performed as described for Example 1 to generate the specific mutants described below. Transamidation reactions were performed as described for Examples 1.

B1: M398E: carboxypeptidase Y S1' mutant, substitution M398E (protein, UniProt P00729 112-532, looked up, variant M398E)
Carboxypeptidase Y: KIKDPKILGIDPNVTQYTGYLDVEDEDKHFFFWTFESRNDPAKDPVILWLNGGPGCSSLTGLFFELGPSSIGPDLKPIGNPYSWNSNATVIFLDQPVNVGFSYSGSSGVSNTVAAGKDVYNFLELFFDQFPEYVNKGQDFHIAGESYAGHYIPVFASEILSHKDRNFNLTSVLIGNGLTDPLTQYNYYEPMACGEGGEPSVLPSEECSAMEDSLERCLGLIESCYDSQSVWSCVPATIYCNNAQLAPYQRTGRNVYDIRKDCEGGNLCYPTLQDIDDYLNQDYVKEAVGAEVDHYESCNFDINRNFLFAGDWMKPYHTAVTDLLNQDLPILVYAGDKDFICNWLGNKAWTDVLPWKYDEEFASQKVRNWTASITDEVAGEVKSYKHFTYLRVFNGGHEVPFDVPENALSMVNEWIHGGFSL
Turning to B1, in experiment [1], the fa is given as 0.97^a; the “change in famax and KN(app), in words” value is “increase in famax while decreasing KN(app)”; the “KN(app)” value is recorded as 0.93^a mM. Also, in experiment [2], the “Fraction of aminolysis (fa), P1' Ala” value came to 0.92; the “Fraction of aminolysis (fa), P1' Leu” value came out at 0.84; the “Fraction of aminolysis (fa), P1' Met” value turned out to be 0.74; the “Fraction of aminolysis (fa), P1' Phe” value stood at 0.71. Further, in experiment [2], the “Fraction of aminolysis (fa), P1' Val” value was determined as 0.82 and the “fraction of aminolysis compared to wild type, in words” value is reported as “improvement in fraction of aminolysis obtained; also recorded: most dramatic improvement; also recorded: enhanced transpeptidation”.

B2: T60F + M398F: carboxypeptidase Y double substitution mutant T60F + M398F (protein, UniProt P00729 112-532, looked up, variant T60F M398F)
Carboxypeptidase Y: B1 Carboxypeptidase Y with T60F, E398F
Turning to B2, in experiment [2], the “Fraction of aminolysis (fa), P1' Ala” value was determined as 0.86; the “Fraction of aminolysis (fa), P1' Leu” value came to 0.86; the “Fraction of aminolysis (fa), P1' Met” value is reported as 0.82; the “Fraction of aminolysis (fa), P1' Phe” value was 0.66. In addition, in experiment [2], the “Fraction of aminolysis (fa), P1' Val” value came out at 0.73 and the “fraction of aminolysis compared to wild type, in words” value is given as “further improved the fraction of aminolysis”.

B3: T60M: carboxypeptidase Y S1' mutant, substitution T60M (protein, UniProt P00729 112-532, looked up, variant T60M)
Carboxypeptidase Y: B1 Carboxypeptidase Y with T60M, E398M
Turning to B3, in experiment [1], the fa is 0.98^b; the “change in famax and KN(app), in words” value was “increase in both famax and KN(app)”. Moreover, in experiment [2], the “Fraction of aminolysis (fa), P1' Ala” value was found to be 0.78; the “Fraction of aminolysis (fa), P1' Leu” value was found to be 0.03; the “Fraction of aminolysis (fa), P1' Met” value stood at 0.01; the “Fraction of aminolysis (fa), P1' Phe” value is 0.18. For the same molecule, the “Fraction of aminolysis (fa), P1' Val” value in experiment [2] came out at 0.15.

B4: M398F: carboxypeptidase Y S1' mutant, substitution M398F (protein, UniProt P00729 112-532, looked up, variant M398F)
Carboxypeptidase Y: B1 Carboxypeptidase Y with E398F
As to B4, in experiment [1], the fa was 0.96^a; the “change in famax and KN(app), in words” value was “increase in both famax and KN(app)”; the “KN(app)” value is listed as 2.3^b mM. In addition, in experiment [2], the “Fraction of aminolysis (fa), P1' Ala” value was 0.87; the “Fraction of aminolysis (fa), P1' Leu” value is listed as 0.85; the “Fraction of aminolysis (fa), P1' Met” value is 0.86; the “Fraction of aminolysis (fa), P1' Phe” value is recorded as 0.85. In experiment [2], the “Fraction of aminolysis (fa), P1' Val” value came out at 0.83 and the “fraction of aminolysis compared to wild type, in words” value was “improvement in fraction of aminolysis obtained; also recorded: most dramatic improvement; also recorded: enhanced transpeptidation”.

B5: M398C: carboxypeptidase Y S1' mutant, substitution M398C (protein, UniProt P00729 112-532, looked up, variant M398C)
Carboxypeptidase Y: B1 Carboxypeptidase Y with E398C
B5: in experiment [1], the fa was 0.95^a and the “KN(app)” value is reported as 0.74^b mM. In experiment [2], the “Fraction of aminolysis (fa), P1' Ala” value is reported as 0.93; the “Fraction of aminolysis (fa), P1' Leu” value was 0.75; the “Fraction of aminolysis (fa), P1' Met” value was 0.65; the “Fraction of aminolysis (fa), P1' Phe” value came to 0.64. Moreover, in experiment [2], the “Fraction of aminolysis (fa), P1' Val” value worked out at 0.52 and the “fraction of aminolysis compared to wild type, in words” value is listed as “improvement in fraction of aminolysis obtained; also recorded: most dramatic improvement; also recorded: enhanced transpeptidation”.

B6: T60V: carboxypeptidase Y S1' mutant, substitution T60V (protein, UniProt P00729 112-532, looked up, variant T60V)
Carboxypeptidase Y: B1 Carboxypeptidase Y with T60V, E398M
Take B6: in experiment [1], the fa was 0.97^a; the “change in famax and KN(app), in words” value was “increase in both famax and KN(app)”. In experiment [2], the “Fraction of aminolysis (fa), P1' Ala” value is recorded as 0.94; the “Fraction of aminolysis (fa), P1' Leu” value was determined as 0.15; the “Fraction of aminolysis (fa), P1' Met” value is given as 0.17; the “Fraction of aminolysis (fa), P1' Phe” value is given as 0.08. Moreover, in experiment [2], the “Fraction of aminolysis (fa), P1' Val” value was determined as 0.29.

B7: N51Q + M398L: carboxypeptidase Y mutant N51Q + M398L (protein, UniProt P00729 112-532, looked up, variant N51Q M398L)
Carboxypeptidase Y: B1 Carboxypeptidase Y with N51Q, E398L
Turning to B7, in experiment [3] (leaving group A), the “Pmax (peak product yield)” value was above 0.07, the fa is given as 0.18 and the “t” value is on record as 3200 min. In experiment [3] (leaving group L), the “Pmax (peak product yield)” value was above 0.04, the fa is recorded as 0.10 and the “t” value is on record as 3500 min.

B8: T60W: carboxypeptidase Y S1' mutant, substitution T60W (protein, UniProt P00729 112-532, looked up, variant T60W)
Carboxypeptidase Y: B1 Carboxypeptidase Y with T60W, E398M
B8: in experiment [1], the fa is 0.96^a; the “change in famax and KN(app), in words” value is “increase in both famax and KN(app)”. Further, in experiment [2], the “Fraction of aminolysis (fa), P1' Ala” value was 0.93; the “Fraction of aminolysis (fa), P1' Leu” value is on record as 0.45; the “Fraction of aminolysis (fa), P1' Met” value worked out at 0.49; the “Fraction of aminolysis (fa), P1' Phe” value is reported as 0.47. In experiment [2], the “Fraction of aminolysis (fa), P1' Val” value is 0.39 and the “fraction of aminolysis compared to wild type, in words” value was “improvement in fraction of aminolysis obtained; also recorded: most effective at increasing the fraction of aminolysis”.

B9: M398Y: carboxypeptidase Y S1' mutant, substitution M398Y (protein, UniProt P00729 112-532, looked up, variant M398Y)
Carboxypeptidase Y: B1 Carboxypeptidase Y with E398Y
B9: in experiment [1], the fa is on record as 0.78^b and the “KN(app)” value is 5.2^c mM. For the same molecule, in experiment [2], the “Fraction of aminolysis (fa), P1' Ala” value turned out to be 0.90; the “Fraction of aminolysis (fa), P1' Leu” value is 0.90; the “Fraction of aminolysis (fa), P1' Met” value was found to be 0.90; the “Fraction of aminolysis (fa), P1' Phe” value stood at 0.92. In experiment [2], the “Fraction of aminolysis (fa), P1' Val” value came out at 0.89 and the “fraction of aminolysis compared to wild type, in words” value is given as “improvement in fraction of aminolysis obtained; also recorded: most dramatic improvement; also recorded: enhanced transpeptidation”.

B10: T60L: carboxypeptidase Y S1' mutant, substitution T60L (protein, UniProt P00729 112-532, looked up, variant T60L)
Carboxypeptidase Y: B1 Carboxypeptidase Y with T60L, E398M
For the molecule B10, in experiment [1], the fa is reported as 1.0^b; the “change in famax and KN(app), in words” value is “increase in both famax and KN(app)”. In experiment [2], the “Fraction of aminolysis (fa), P1' Ala” value is 0.91; the “Fraction of aminolysis (fa), P1' Leu” value turned out to be 0.13; the “Fraction of aminolysis (fa), P1' Met” value stood at 0.08; the “Fraction of aminolysis (fa), P1' Phe” value turned out to be 0.24. In experiment [2], the “Fraction of aminolysis (fa), P1' Val” value is recorded as 0.17.
